Like-named read-outs stand apart in the source and are kept apart here.
B1: mouse CNBh domain (residues 552-724) (domain or fragment, UniProt Q60603 552-724, looked up)
chain: TEKVLQICPKDMRADICVHLNRKVFKEHPAFRLASDGCLRALAMEFQTVHCAPGDLIYHAGESVDSLCFVVSGSLEVIQDDEVVAILGKGDVFGDVFWKEATLAQSCANVRALTYCDLHVIKRDALQKVLEFYTAFSHSFSRNLILTYNLRKRIVFRKISDVKREEEERMKRK
B2: mouse EAG1 PAS protein (residues 1-137) (domain or fragment, UniProt Q60603 1-137, looked up)
chain: MTMAGGRRGLVAPQNTFLENIVRRSNDTNFVLGNAQIVDWPIVYSNDGFCKLSGYHRAEVMQKSSACSFMYGELTDKDTVEKVRQTFENYEMNSFEILMYKKNRTPVWFFVKIAPIRNEQDKVVLFLCTFSDITAFK
B3: fluorescein-labeled mEAG1 PAS (F-PAS) (domain or fragment, mouse, UniProt Q60603 1-137, looked up)
chain: B2 chain
modifications: fluorescein (fluorescein 5-maleimide) on accessible cysteine residues; fluorescein to protein molar ratio typically 3 or 4

Columns and labels:
[1] = target: hERG PAS domain (Homo sapiens, UniProt Q12809); assay: Thermal shift assay; type: binding; settings: for Shift in Tm of hERG PAS protein: dose response, compound solubility issues limited this study
Sequence of hERG PAS domain (Q12809 1-135): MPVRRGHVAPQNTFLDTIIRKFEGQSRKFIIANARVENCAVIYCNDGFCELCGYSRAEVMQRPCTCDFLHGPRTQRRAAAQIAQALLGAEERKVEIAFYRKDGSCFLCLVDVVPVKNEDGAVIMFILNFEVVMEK

[2] = target: B2; assay: ITC
[3] = target: B2; assay: ITC; remark: listed apart in the source
[4] = target: B2; assay: ITC; remark: listed apart in the source
[5] = target: B1; assay: ITC
[6] = target: B1; assay: ITC; remark: listed apart in the source
[7] = target: B1; assay: ITC; remark: listed apart in the source
[8] = target: B1; assay: fluorescence polarisation
[9] = target: B1; assay: fluorescence polarisation; remark: listed apart in the source
[10] = target: B1; assay: fluorescence polarisation; remark: listed apart in the source
[11] = target: B1; assay: fluorescence polarisation; remark: listed apart in the source
[12] = target: B1; assay: fluorescence polarisation; remark: listed apart in the source

## Oc1ccc(C(c2ccc(O)cc2)(C(F)(F)F)C(F)(F)F)cc1 [Bisphenol AF]
[1]; human, 200 µM, pH 7.5
  Decrease in Tm of hERG PAS protein: at least 4.5 °C

## CC(C)(C)c1cc(S)cc(C(C)(C)C)c1O [ST057196]
[1]; on addition of 50 µM of compound
  Decrease in Tm of hERG PAS protein: more than 18 °C

## CC(C)(c1ccc(O)cc1)c1ccc(O)cc1 [Bisphenol A]
[1]
  Shift in Tm of hERG PAS protein: No shift

## Oc1ccc(Cc2ccc(O)cc2)cc1 [Bisphenol F]
[1]
  Shift in Tm of hERG PAS protein: No shift

## B1
[2]
  stoichiometry N: 1.2
[3]
  stoichiometry N: 1.3 ± 0.27
[4]
  stoichiometry N: 0.77

## B2
[5]
  Kd: 1.1 µM
[6]
  Kd: 2.1 ± 0.8 µM
[7]
  Kd: 3.3 µM

## B3
[8]
  Kd: 2.3 ± 0.93 µM
[9]
  Kd: 2.4 ± 0.67 µM
[10]
  Kd: 1.8 ± 0.56 µM
[11]
  Kd: 3.1 ± 1.1 µM
[12]
  Kd: 3.6 ± 1.2 µM
